Results as given in patent publication US20240182536A1.

Key:
[1] = target: T1, mouse IL-18 binding protein (mouse) (UniProt Q9Z0M9); assay: cell-based or functional assay
T1 sequence (looked up): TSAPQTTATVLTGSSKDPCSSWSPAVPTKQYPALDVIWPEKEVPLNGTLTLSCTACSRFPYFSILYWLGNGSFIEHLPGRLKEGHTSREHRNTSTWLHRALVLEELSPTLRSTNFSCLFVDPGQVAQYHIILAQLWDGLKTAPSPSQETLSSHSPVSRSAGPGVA

[2] = target: T2, mouse IL-18 receptors on PathHunter U2OS mIL18-NF-kb reporter cells (mouse) (UniProt Q61098); assay: cell-based or functional assay
T2 sequence (looked up) 1: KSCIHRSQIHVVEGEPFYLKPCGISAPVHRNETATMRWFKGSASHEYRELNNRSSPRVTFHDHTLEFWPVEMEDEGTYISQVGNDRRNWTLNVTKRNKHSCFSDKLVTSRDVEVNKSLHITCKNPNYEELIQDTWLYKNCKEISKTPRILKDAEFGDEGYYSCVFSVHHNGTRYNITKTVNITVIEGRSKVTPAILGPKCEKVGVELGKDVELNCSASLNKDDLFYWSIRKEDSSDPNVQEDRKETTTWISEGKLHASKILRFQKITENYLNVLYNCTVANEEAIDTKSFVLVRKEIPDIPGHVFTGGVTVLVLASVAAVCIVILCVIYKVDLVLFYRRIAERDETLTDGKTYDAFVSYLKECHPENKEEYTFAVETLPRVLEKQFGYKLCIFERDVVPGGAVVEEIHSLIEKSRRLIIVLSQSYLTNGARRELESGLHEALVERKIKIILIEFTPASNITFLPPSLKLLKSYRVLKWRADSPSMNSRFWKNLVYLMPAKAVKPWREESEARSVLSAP
T2 sequence (looked up) 2: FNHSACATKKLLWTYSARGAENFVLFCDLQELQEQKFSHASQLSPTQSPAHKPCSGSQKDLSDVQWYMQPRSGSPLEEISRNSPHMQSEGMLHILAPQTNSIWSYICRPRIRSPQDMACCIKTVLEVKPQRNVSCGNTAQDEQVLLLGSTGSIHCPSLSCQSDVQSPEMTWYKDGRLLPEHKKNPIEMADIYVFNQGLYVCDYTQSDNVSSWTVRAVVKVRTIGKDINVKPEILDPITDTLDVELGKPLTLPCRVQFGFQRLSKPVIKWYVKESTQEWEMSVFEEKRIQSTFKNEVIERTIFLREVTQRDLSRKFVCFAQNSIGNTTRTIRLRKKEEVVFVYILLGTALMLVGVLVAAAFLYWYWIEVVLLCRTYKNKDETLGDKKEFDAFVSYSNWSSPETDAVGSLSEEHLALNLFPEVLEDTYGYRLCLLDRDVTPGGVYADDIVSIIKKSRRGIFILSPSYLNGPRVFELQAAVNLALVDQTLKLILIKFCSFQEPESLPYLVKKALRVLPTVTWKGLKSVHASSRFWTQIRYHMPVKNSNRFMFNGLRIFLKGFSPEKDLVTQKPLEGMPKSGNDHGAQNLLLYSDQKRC

mouse IL-18 reporter assay EC50, +Mouse IL-18BP 50 nM [1]: > 500 pM
mouse IL-18 reporter assay EC50, without mouse IL-18BP [2]: 0.61 pM
B1: WT mouse IL-18 (ligand, UniProt P70380 36-192, looked up)
chain: NFGRLHCTTAVIRNINDQVLFVDKRQPVFEDMTDIDQSASEPQTRLIIYMYKDSEVRGLAVTLSVKDSKMSTLSCKNKIISFEEMDPPENIDDIQSDLIFFQKRVPGHNKMEFESSLYEGHFLACQKEDDAFKLILKKKDENGDKSVMFTLTNLHQS
